Data from a protein production outcome set (Wang et al. 2014).

Test: label from the status in PepcDB records

Sequence: MTADEWPQRLIRFTDWSHAEATAVEHLLPVLIAQESELAQWSFLRKHPWWRLRYRPACPDSAKALDAALDELVDAGVLASWTRGIYEPEETAFGGPAAMKIAHALFHYDSRHLLDEAARQQTVSGPRLGRRELAVLLLSVAMRAAGLDWYEQGDVWARIAAERSGDEVRSPQRHRAAVHRLMTVDVSTTSRSVARGRLAPLAEWIATFEWFGQQLADLNRQGRLERGLRAVIAHHGIFHFNRLGLAAQDQHTLSTLAKEVVMGTSDNAASTQAEGAPGATVNGVNSDTIEAPSADRLRAQLIDHLVETGCVRTPRVEEAMRTVPRHLFVPNAPLEKAYGNAPVDTKFDGSGRSISCASQPDIVAMMLEQLDVQPGQKILELGAGTGFNAGLLGYLVGETGHVTTIDVDEDIVAGARGGLAAAGIHNVEVILGDGAVGHTPNAPYDRIEATVGAHGVPHAWLDQLAPGGRLLTPLRLRGSVSRSIAFENQDGAWRSVGSQMNTFMPLRRGIADDPRLFVPLDPDHTVTLVTNGDQKVDADALGDIFRQPRTEAWTDVTFRGPESAEYLELWLTCAMPNGLSRMPAKNEAIEKGLVTAPYPSSTAVFEDGTLTYLTRRPYAKKAPDGATLYEFGVIGHGPDAEALAGDVADQIRAWDQDFRALDVGFEIQPLDAAPLAPKPGRFAFDNPLNRIVIEWQ
- protein production: failed

Sequence: MTADPTKNDPHGLGTASRPAAELAVGETETIPVIEETARIDKRVVEKGRVRVQTRTETTDDVLRETLRSDVVGVTRIPIDRVIAEGEVAPTIRTENGVTIIPVLEEVLVVEKRLILKEEVHIRQTTSGEAVEVPVTLRRQHAVVERVSADGHVSEIPPKEQTP
- protein production: failed

Sequence: MTAEIDIQNSIRLELSRHGHYVFRANVGKVRMPNGRIFDTGLPKGFPDLFGFRGTDGKMFFIEVKNEIGKLRQEQKNFQQAMEITPAIGVARSAEEALKIVEGLEHHHHHH
- protein production: failed

Sequence: MTAEVLIGDGDVRLSPHPLRAIVLGEVHARPFTALSLPARVLHFAFDTSGQRAAADRAAMISFCESRGLQPPPPGEKHHRANFGTTTLRWEQHSEFTTYTWEIPADPAGVPFHPEASSLASPMRLLPQPGPLLVAVDLHAMPEDPPRTSPERLFDRASLAVAENSDGAALFATDFQPGPSGFVRVLVIDRGMSAERAGALVQRVLEVETYRTLALLGLPEAQRLAPSIAASERRLAEVTAEMRRAGDLANNNKLLQELTELAAEVEAGAAASLYRFGASRAYDEIMNGRLATLGERKVGGLPTWSSFLARRMKPAMRTCATTEARQSDLSLKLARAANLLRTRVDVEVEQQNQELLKSMNARTRLQLRLQTTVEGLSTAAITYYVVGLFGYMVKGAAEAGRLKIDPNLLTAGFVPIAALVIWWTIRRIRKKHIPDVD
- protein production: failed

Sequence: MTAFDPFEDFGDTEEIGERLNDADPAVRRLAVIDLAETANADVLPHLLTAVADPDATVRLQVAIALSEFDTVEAAAGLARLAADQDLTVAQAAADSLAELKDPATADSILPLVSHGRAFVRAAGFRGLKALRSRGALAPALAAMRDEDANVRAQALGVVAYLKLEETLPSLIAATRDAEAIVRSVAVNALSFTSQPAAAAAVTAALDDENWQVRAAAADTLGRIGQTSAVDGLTAGLSDEYWQVRQKCLNALGKLKAQSAVRQISELLTSDLASLRKESAAALGEIADPSSRAVLMHHIGDADPDVRKTVCWALTRLG
- protein production: failed

Sequence: MTAFRQRPLRLGHRGAPLKAKENTLESFRLALEAGLDGVELDVWPTRDGVFAVRHDPDTPLGPVFQVDYADLKAQEPDLPRLEEVLALKEAFPQAVFNVELKSFPGLGEEAARRLAALLRGREGVWVSSFDPLALLALRKAAPGLPLGFLMAEDHSALLPCLGVEAVHPHHALVTEEAVAGWRKRGLFVVAWTVNEEGEARRLLALGLDGLIGDRPEVLLPLGG
- protein production: not failed

Sequence: MTAGGTMTLKITFLGSGSSFAIGPENYQSNVLLELENDTLLIDAGTDIKYSLRDQGLSYKDIKNIYISHLHYDHCGGLEWFALITYFDPNLSHKPCLIASDKIINELWDKSLSGGLSTLPHERANLSAFFDVKAVKQYEGFVWRSIKFKLVQTVHYYSEYELMPSFGLIFSYNKSRILFTSDTQSCPVQLISFYEESDIIFHDCETTESKSGVHAHYSELVKLPSHLKKKMWLYHYNPGKLPNAKKDGFLGFVAKGQSFVF
- protein production: failed

Sequence: MTAKAACSDFLHFFRSWVSNPLRVAAIAPSGDSLARIMTSEIAALDGPIIELGPGTGVFTRALLARGVSEADLTLIEYGPEFITSLQARFPTARVLQMDAAHLAHADIFEGEPVGAVVSGLPLLSMSPRKIASILAGAFAYMRPGGAVYQFTYGPRCPVPRPILDRLGLKAVRIGGTVRNLPPASVYRISRRKPLELSRERFSYRSSAADVDDVAAFSNETGG
- protein production: failed

Sequence: MTAKPAVVGGFILGALALGVAAIVLFGGQRLFTSTREVVVFFNESVAGLQVGAPVTFHGVPVGTVKTIALRVSTRDLSARIPVVLELQPDQISWEGEHLNGDDDTYQRLIAAGLRAQLAPQSIVTGQMRVDLDFKPGTSAALSGEPTDLPEIPAVASDLDELRDKVTELPLRDLVETAQKTLANVQALTSSLNTRIPTLTTSAEQSVAVATQTLVTTQEAVRQIQADASVTLKELSDLLADLHRQVDARGGELGKTLSAAERTARQAESLMISLNELAGPRARFRADLEAAARDLSASASSTRSFTRTLERDPSALLSGDTKR
- protein production: failed

Sequence: MTAPLHLDSLFPSLDAIPEQYRPDAPIEQRDYLVDGQLRHWDGPLAPVRSPVFLAEADGERQVILGSTPLLDADAALAALDAAVRAYDHGQGLWPNLRVAERIQHVERFLARMREQREAVVKLLMWEIGKNLKDSEKEFDRTCDYIVDTIEALKELDRHSSRFELEQGTLGQIRRVPLGVALCMGPYNYPLNETFTTLIPALIMGNTVVFKPAKFGVLLIRPLLEAFRDSFPPGVINVIYGRGRETVSALMASGKVDVFAFIGTHSGASDLKKLHPRPHRLRAALGLDAKNPGIVLPQVDLDNAVNEAVTGALSFNGQRCTALKILFVHESVLRPFLDKFSARLASLKPGMPWEPGVALTPLPEPGKVDYLEGLLNDALAKGARVVNAGGGEHRQSFFYPALLSPVSPDMRLYHEEQFGPLVPVVPYRELDEVIDYVLRSDYGQQLSLFGNDPAQIGRLVDAFANQVGRINVNAQCQRGPDSYPFNGRKNSAEGTLSVHDALRVFSIRTLVATRDTEANKTLVSEII
- protein production: failed

Sequence: MTAQIRLAEPADLNDDTLRARAVAAARGDQRFDVLITGGTLVDVVTGELRPADIGIVGALIASVHEPASRRDAAQVIDAGGAYVSPGLIDTHMHIESSMITPAAYAAAVVARGVTTIVWDPHEFGNVHGVDGVRWAAKAIENLPLRAILLAPSCVPSAPGLERGGADFDAAILADLLSWPEIGGIAEIMNMRGVIERDPRMSGIVQAGLAAEKLVCGHARGLKNADLNAFMAAGVSSDHELVSGEDLMAKLRAGLTIELRGSHDHLLPEFVAALNTLGHLPQTVTLCTDDVFPDDLLQGGGLDDVVRRLVRYGLKPEWALRAATLNAAQRLGRSDLGLIAAGRRADIVVFEDLNGFSARHVLASGRAVAEGGRMLVDIPTCDTTVLKGSMKLPLRMANDFLVKSQGAKVRLATIDRPRFTQWGETEADVKDGFVVPPEGATMISVTHRHGMAEPTTKTGFLTGWGRWNGAFATTVSHDSHNLTVFGGNAGDMALAANAVIGTGGGMAVASEGKVTAILPLPLSGLVSDAPLEEVARAFEDLREAVGKVVEWQPPYLVFKACFGATLACNIGPHQTDMGIADVLTGKVMESPVIEVLG
- protein production: failed

Sequence: MTARNILSYSYEEYVEKITAFHGYPAPGVLIGGFMVDLAVKNLPEGILYDAICETRTCLPDAVQLLTPCTFGNGWLTVLPMGLFAVSLYDKFTGEGVRVFLDVEKMGPWQEIRNWFLKLKTKKEQDSERLFKEIREAGPDILELRNVKLKPGFLEKKHKGKIVLCPQCREAYPAQDGELCLSCQGGSPYL
- protein production: not failed

Sequence: MTASFPTRVYLLRHAKAAWAAPGERDFDRGLNEAGFAEAEIIADLAADRRYRPDLILSSTAARCRQTTQAWQRAFNEGIDIVYIDEMYNARSETYLSLIAAQTEVQSVMLVGHNPTMEATLEAMIGEDLLHAALPSGFPTSGLAVLDQDDSAASGKNRWRLIDFLAPGK
- protein production: not failed

Sequence: MTASIFSGVIPALMTPCRQDRTPDFDALVRKGKELIADGMSAVVYCGSMGDWPLLTDEQRMEGVERLVKAGIPVIVGTGAVNTASAVAHAVHAQKVGAKGLMVIPRVLSRGSVIAAQKAHFKAILSAAPEIPAVIYNSPYYGFATRADLFFALRAEHKNLVGFKEFGGPADMRYAAENITSRDDEVTLMIGVDTAVVHGFVNCGATGAITGIGNVLPKEVIHLCKLSQAAAKGDADARARALELEQALAVLSSFDEGPDLVLYFKYMMVLKGDKEYTLHFNETDALTDSQRGYVEAQFKLFNSWYADWSKLPGAVQTCKAA
- protein production: not failed
